Measured values as given in US20220306733A1 (ITEOS BELGUIM, published 2022).
Numbering of substitutions follows the chain as printed. Numbers in names are those of the source. Values belong to the binder of their own block, whether it stands above or below them.

Columns and labels:
[1] = biological target: T1, human TIGIT on cells (Jurkat-hTIGIT, human primary T cells) (human, UniProt Q495A1 22-244); test: flow cytometry on Jurkat-hTIGIT, no 31282
T1 construct: whole, on cells; The cell type is named in each row's assay; also called membrane expressed human TIGIT
T1 sequence (looked up): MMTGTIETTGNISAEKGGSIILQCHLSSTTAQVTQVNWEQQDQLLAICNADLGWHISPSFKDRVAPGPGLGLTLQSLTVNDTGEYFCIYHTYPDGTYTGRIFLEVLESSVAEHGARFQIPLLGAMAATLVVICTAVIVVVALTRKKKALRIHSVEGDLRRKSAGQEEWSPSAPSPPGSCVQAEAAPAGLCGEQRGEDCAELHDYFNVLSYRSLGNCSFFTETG

[2] = biological target: T1, human TIGIT on cells (Jurkat-hTIGIT, …); test: cell-based or functional assay
[3] = biological target: T1, human TIGIT on cells (Jurkat-hTIGIT, …); test: cell-based or functional assay; remark: listed apart in the source
[4] = biological target: T2, mouse TIGIT on cells (Jurkat-mTIGIT) (mouse, UniProt P86176 29-249); test: cell-based or functional assay
T2 sequence (looked up): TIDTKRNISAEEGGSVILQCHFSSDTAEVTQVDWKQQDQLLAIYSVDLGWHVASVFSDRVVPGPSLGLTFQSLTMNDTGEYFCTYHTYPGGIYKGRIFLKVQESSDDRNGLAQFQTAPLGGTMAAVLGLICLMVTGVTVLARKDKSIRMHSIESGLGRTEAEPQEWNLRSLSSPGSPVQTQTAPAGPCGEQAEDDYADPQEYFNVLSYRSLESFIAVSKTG

[5] = biological target: T1, human TIGIT on cells (Jurkat-hTIGIT, …); test: cell-based or functional assay; remark: listed apart in the source
[6] = biological target: T1, human TIGIT on cells (Jurkat-hTIGIT, …); test: flow cytometry on Jurkat-hTIGIT, 100 nM antibody, vs untransfected Jurkat
Method: (§1) Antibodies were incubated with the cells for 20 min at 4° C. in FACS buffer. […] Geometric mean fluorecence intensity was analysed using LSR BD Fortessa. Cell binding was recorded as the median florescence intensity of PE on the transfected line compared to the un-transfected line for each antibody (Table 3).

[7] = biological target: T2, mouse TIGIT on cells (Jurkat-mTIGIT); test: flow cytometry on Jurkat-mTIGIT, 100 nM antibody, vs untransfected Jurkat
Method: as §1

[8] = biological target: T3, anti-idiotypic antibody clone 32869; test: MSD electrochemiluminescence bridging ELISA: anti-idiotypic antibody 32869 coated on the plate, clone 31282 spiked in human serum, detection with Sulfo-TAG 32869
T3 construct: Human IgG1 from HEK293, selected from the HuCAL library
Description: The ELISA assay is based on the Meso Scale Discovery (MSD) Platform using electrochemiluminescence detection technology. […] A voltage is applied to the plate electrodes, causing the bound Sulfo-TAG to emit light via electrochemical stimulation.

T3 sequence (VH, as listed by the source, chain 1 of 2): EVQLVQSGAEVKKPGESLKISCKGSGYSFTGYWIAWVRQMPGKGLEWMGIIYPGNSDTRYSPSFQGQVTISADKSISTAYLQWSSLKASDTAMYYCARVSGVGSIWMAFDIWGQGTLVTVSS
T3 sequence (VL, as listed by the source, chain 2 of 2): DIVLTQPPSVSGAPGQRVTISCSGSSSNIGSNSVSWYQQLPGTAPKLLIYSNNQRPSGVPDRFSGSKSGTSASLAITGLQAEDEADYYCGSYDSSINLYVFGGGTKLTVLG

Cell binding Jurkat Human TIGIT FON (Fold Over Negative) [1]: 588 fold over negative
B1: anti-TIGIT antibody clone 32959 (antibody, human IgG1, V domains shown)
VH: QVQLVQSGAEVKKPGSSVKVSCKASGGTFSSYLISWVRQAPGQGLEWMGGIYPIFATANYAQKFQGRVTITADESTSTAYMELSSLRSEDTAVYYCAREAQSYRVPFDIWGQGTMVTVSS
VL: EIVMTQSPATLSVSPGERATLSCRASQSVSSNLAWYQQKPGQAPRLLIYGASTRATGIPARFSGSGSGTEFTLTISSLQSEDFAVYYCQQYAIWPPFTFGGGTKVEIK
modifications: AF647 dye coupled to the antibody in Examples 24 and 36; the site is not stated and the letters do not carry it.
notes: human IgG1 from HEK cells

luciferase induction over isotype control (fold change), Jurkat-hTIGIT + CHO-TCR-CD155 bioassay, 133 nM antibody [5]: 3.68 fold | Cell binding FON (Fold Over Negative) [6]: 164 fold over negative | Cell binding FON (Fold Over Negative) [7]: 541 fold over negative
B6: anti-TIGIT antibody clone 29499 (antibody, V domains shown)
VH: QLQLQESGPGLVKPSETLSLTCTVSGGSISSSRYYWAWIRQPPGKGLEWIGSIGTSGSTYYNPSLKSRVTISVDTSKNQFSLKLSSVTATDTAVYYCAIEGANFRDFGYVAFDIWGQGTMVTVSS
VL: EIVMTQSPATLSVSPGERATLSCRASQSVSSNLAWYQQKPGQAPRLLIYGASTRATGIPARFSGSGSGTEFTLTISSLQSEDFAVYYCQQSPPWPRTFGGGTKVEIK
notes: human IgG; Fab for 'Fab KD' columns

EC50 (nM), luciferase, Jurkat-hTIGIT + CHO-CD155 [2]: 5.2 nM | luciferase induction over isotype control (fold change), Jurkat-hTIGIT + CHO-CD155 [2]: 5.3 fold | EC50 (nM), IFNg, human primary CD8+ T cells + CHO-CD155 [3]: 0.41 nM | IFNg induction over isotype control (fold change), human primary CD8+ T cells + CHO-CD155 [3]: 1.5 fold
B7: comparative anti-TIGIT antibody 22G2 (antibody, human IgG1, V domains shown)
VH: QVHLQESGPGLVKPSETLSLTCTVSGGSVSSGIYYWSWIRQPPGKGLEWIGYIYYSGSTNYNPSLKSRVTISVDTSKNQFSLKLSSVTAADTAVYYCARDYYVSGNYYNVDYYFFGVDVWGQGTTVTVSS
VL: EIVLTQSPATLSLSPGERATLSCRASQSVSSYLAWYQQKPGQAPRLLIYDASNRATGIPARFSGSGSGTDFTLTISSLEPEDFAVYYCQQRSNWPPLFTFGPGTKVDIK

EC50 (nM), luciferase, Jurkat-hTIGIT + CHO-CD155 [2]: 5.3 nM | luciferase induction over isotype control (fold change), Jurkat-hTIGIT + CHO-CD155 [2]: 6.7 fold | EC50 (nM), IFNg, human primary CD8+ T cells + CHO-CD155 [3]: 0.3 nM | IFNg induction over isotype control (fold change), human primary CD8+ T cells + CHO-CD155 [3]: 1.6 fold
B9: comparative anti-TIGIT antibody 31C6 (MEB125.31C6.A1.205 VH4/VL1) (antibody, human IgG1, V domains shown)
VH: EVQLVQSGAEVKKPGASVKVSCKASGYTFSSYVMHWVRQAPGQGLEWIGYIDPYNDGAKYAQKFQGRVTLTSDKSTSTVYMELSSLRSEDTAVYYCARGGPYGWYFDVWGQGTTVTVSS
VL: DIQMTQSPSSLSASVGDRVTITCRASEHIYSYLSWYQQKPGKAPKLLIYNAKTLAEGVPSRFSGSGSGTDFTLTISSLQPEDFATYYCQHHFGSPLTFGQGTRLEIK

Continued, binder first:

B2: comparative anti-TIGIT antibody 4.1D3.Q1E (antibody, human IgG1, V domains shown)
VH: EVQLQQSGPGLVKPSQTLSLTCAISGDSVSSNSAAWNWIRQSPSRGLEWLGKTYYRFKWYSDYAVSVKGRITINPDTSKNQFSLQLNSVTPEDTAVFYCTRESTTYDLLAGPFDYWGQGTLVTVSS
VL: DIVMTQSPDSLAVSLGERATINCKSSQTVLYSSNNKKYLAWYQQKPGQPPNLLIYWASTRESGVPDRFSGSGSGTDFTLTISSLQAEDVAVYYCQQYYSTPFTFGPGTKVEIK
EC50 (nM), luciferase, Jurkat-hTIGIT + CHO-CD155 [2]: 10.3 nM | luciferase induction over isotype control (fold change), Jurkat-hTIGIT + CHO-CD155 [2]: 5.8 fold | EC50 (nM), IFNg, human primary CD8+ T cells + CHO-CD155 [3]: 1.43 nM | IFNg induction over isotype control (fold change), human primary CD8+ T cells + CHO-CD155 [3]: 2.9 fold

B3: anti-TIGIT antibody clone 26493 (antibody, V domains shown)
VH: EVQLVESGGGLVQPGRSLRLSCAASGFTFGDYAMHWVRQAPGKGLEWVSGITWNSGSIGYADSVKGRFTISRDNAKNSLYLQMNSLRAEDTALYYCAKPVPKSRGLDVWGQGTMVTVSS
VL: DIQLTQSPSSVSASVGDRVTITCRASQGISSWLAWYQQKPGKAPKLLIYGASSLQSGVPSRFSGSGSGTDFTLTISSLQPEDFATYYCQQAFYLPWTFGGGTKVEIK
notes: Naive parent clone, VH3-09; human IgG; Fab for 'Fab KD' columns; mouse IgG2a/IgG1 versions only used in vivo / ex vivo; also called surrogate anti-TIGIT antagonistic antibody
IFNg production by mouse OT-1 CD8+ T cells co-cultured with OVA-pulsed PanO2 cells, 133 nM antibody [4]: ~2 fold | luciferase induction over isotype control (fold change), Jurkat-hTIGIT + CHO-TCR-CD155 bioassay, 133 nM antibody [5]: 0.96 fold | Cell binding FON (Fold Over Negative) [6]: 80 fold over negative | Cell binding FON (Fold Over Negative) [7]: 463 fold over negative

B4: anti-TIGIT antibody clone 26486 (antibody, V domains shown)
VH: QVQLQESGPGLVKPSETLSLTCAVSGYSISSGYYWAWIRQPPGKGLEWIGSIYHSGSTYYNPSLKSRVTISVDTSKNQFSLKLSSVTAADTAVYYCAIEGANYYDFGYVAFDIWGQGTMVTVSS
VL: B6 VL
notes: Naive parent clone, VH4-0B; human IgG; Fab for 'Fab KD' columns
luciferase induction over isotype control (fold change), Jurkat-hTIGIT + CHO-TCR-CD155 bioassay, 133 nM antibody [5]: 1.9 fold | Cell binding FON (Fold Over Negative) [6]: 143 fold over negative | Cell binding FON (Fold Over Negative) [7]: 199 fold over negative

B5: anti-TIGIT antibody clone 29494 (antibody, V domains shown)
VH: B6 VH with L2V, S32G, R33S, W36L, G54F, T55R, K66E, T90A, R105K
VL: B6 VL
notes: as for B6
luciferase induction over isotype control (fold change), Jurkat-hTIGIT + CHO-TCR-CD155 bioassay, 133 nM antibody [5]: 3.42 fold | Cell binding FON (Fold Over Negative) [6]: 164 fold over negative | Cell binding FON (Fold Over Negative) [7]: 511 fold over negative

B8: anti-TIGIT antibody clone 31282 (antibody, V domains shown)
VH: QVQLVQSGAEVKKPGASVKVSCKASGYTFTSYYMHWVRQAPGQGLEWMGVIGPSGASTSYAQKFQGRVTLTRDTSTSTVYMELSSLRSEDTAVYYCARDHSDYWSGIMEVWGQGTTVTVSS
VL: EIVLTQSPGTLSLSPGERATLSCRASQSVRSSYLAWYQQKPGQAPRLLIYGASSRATGIPDRFSGSGSGTDFTLTISRLEPEDFAVYYCQQYFSPPWTFGGGTKVEIK
binding result [8]: binds
